Data as given in patent JP2018058812A.

Target: バキュロウイルスを用いて作製したFlagタグ融合インフルエンザウィルスH1N1由来のリコンビナントヌクレオプロテイン(NP)タンパク質 (influenza A virus H1N1)

B1: 配列番号:08により表されるアミノ酸配列からなるVHH抗体 (VHH)
VHH: QVQLVESGGGLVQAGGSLRLSCAASRTIFNPNVMGWYRQAPGKQRELVADISLSGSTNYADSVKGRFTISRDNAKNTMYLQMNSLKPEDTAVYYCNTNAISGAPGRYWGQGTQVTVSS
- Kd: 236 pM
